Experimental data: the supplement of paper PMC9732359
± gives the uncertainty stated by the source.

Experiment: protein stability index of a GFP-peptide fusion (yeast GPS) (PSI 1-4); higher = more stable; sorted into four equal gates, so the index is relative within each strain
Procedure, shortened: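 Tiled 17-residue peptides from yeast proteins were fused downstream of GFP on a plasmid that also expresses Cherry, and the pooled library was carried in yeast. Mid-log cultures grown in leucine-free medium were sorted into four equal gates by GFP/Cherry fluorescence ratio. Plasmids from each gate were PCR-amplified and Illumina-sequenced, and reads were assigned to strains by barcodes. Each peptide's protein stability index is the sum, over gates, of the gate's read frequency multiplied by its gate number.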

| Sequence | protein stability index (doa10∆) | protein stability index (pdr5∆) | protein stability index (san1∆) | protein stability index (ubr1∆) |
| --- | --- | --- | --- | --- |
| QFMKRFPMPYENEEFIT [ECM29] | 2.88 ± 0.062 | 2.83 ± 0.094 | 2.85 ± 0.083 |  |
| KMVKAWNLNQFQIEADF [ASC1] | 2.58 ± 0.046 | 2.67 ± 0.053 | 2.58 ± 0.067 | 2.55 ± 0.04 |
| KPFRQTKFKVRGSSSLY [RPL38] | 2.83 ± 0.12 | 3.33 ± 0.071 | 3.17 ± 0.09 | 3 ± 0.085 |
| NLAIVELVRLLIIDEIH [BRR2] | 2.58 ± 0.069 | 2.38 ± 0.08 | 2.85 ± 0.088 | 2.36 ± 0.062 |
| HQFHDILEEKTDLHLPK [NSL1] | 2.35 ± 0.07 | 2.29 ± 0.065 | 2.27 ± 0.076 | 2.38 ± 0.054 |
| RNESLKNNSSIRNVIMS [SRB8] | 1.81 ± 0.035 | 2.11 ± 0.049 | 1.87 ± 0.084 | 2.09 ± 0.039 |
| IPRTFRTPVPSTLMPGG [SNF5] | 2.68 ± 0.066 | 2.18 ± 0.05 | 2.44 ± 0.045 | 2.65 ± 0.048 |
| IKDEIDDPFTKINTRGA [SWI1] | 1.96 ± 0.22 | 1.58 ± 0.1 | 1.53 ± 0.13 | 2.12 ± 0.16 |
| QITIEPGVDVEVVVASN [RPS20] | 2.53 ± 0.061 | 2.57 ± 0.099 | 3.01 ± 0.098 | 2.51 ± 0.066 |
| DSIYTKPVKVALIFIFF [YJL039C/NUP192] | 1.69 ± 0.039 | 1.68 ± 0.033 | 1.5 ± 0.058 | 1.68 ± 0.023 |
| GLNAKQLYKARMSIKLL [POP1] | 2.13 ± 0.082 | 1.73 ± 0.08 | 2.41 ± 0.06 | 2.37 ± 0.029 |
| LNIDFGSDKQMFTQIYL [YML103C/NUP188] | 3.17 ± 0.14 | 2.99 ± 0.15 | 2.46 ± 0.12 | 3.25 ± 0.066 |
| SEVGDAFIFGLQDELKE [SMC3] | 3.2 ± 0.067 | 3.31 ± 0.061 | 3.1 ± 0.057 | 3.25 ± 0.072 |
| IDEKSQFVETIVSKSIE [RPN2] | 1.68 ± 0.1 | 2.19 ± 0.1 | 1.64 ± 0.096 | 1.98 ± 0.089 |
| AFDVDRAKSCGVDAMSV [RPL1A] | 2.79 ± 0.092 | 2.73 ± 0.094 | 2.76 ± 0.091 | 2.71 ± 0.055 |
| SNGFNNVTFGSKKDPRI [YMR153W/NUP53] | 2.77 ± 0.048 | 2.74 ± 0.059 | 2.89 ± 0.045 | 2.87 ± 0.046 |
| KTTITRVEPETFEIPQA [SWI3] | 2.38 ± 0.066 | 2.81 ± 0.081 | 2.84 ± 0.072 | 2.38 ± 0.054 |
| VKGTNISEKDLVPKRCL [RPO31] | 2.63 ± 0.12 | 3.39 ± 0.13 | 3.42 ± 0.082 | 3.12 ± 0.09 |
| LVSEKIINSTALMKEKD [RPC82] | 3.19 ± 0.17 | 3.11 ± 0.081 | 3.11 ± 0.084 | 3.27 ± 0.092 |
| LFVCNKDPDVPLVLLQQ [POP3] | 2.57 ± 0.082 | 2.32 ± 0.077 | 2.26 ± 0.11 | 2.27 ± 0.058 |
| DDEDEDDSDNVMSSDDE [PRE10] | 3.17 ± 0.094 | 3.46 ± 0.12 | 3.44 ± 0.15 | 3.12 ± 0.17 |
| SDDDNIGQSEELSDKEI [ISW2] | 3.31 ± 0.1 | 3.44 ± 0.09 | 3.31 ± 0.08 | 3.41 ± 0.12 |
| IQQHARYDCSFCGKKTV [RPL43A] | 2.71 ± 0.23 | 2.94 ± 0.1 | 2.81 ± 0.065 | 3.06 ± 0.066 |
| NANTIETAKMIENMTKE [FAS2] | 2.72 ± 0.073 | 3.35 ± 0.078 | 2.97 ± 0.065 | 3.35 ± 0.095 |
| NAIFLSSEQDYSTLKEL [YCG1] | 2.61 ± 0.078 | 2.6 ± 0.11 | 2.18 ± 0.18 | 2.81 ± 0.094 |
| ATDVEARAVQDNGESAF [RPL13A] | 3.16 ± 0.11 | 2.99 ± 0.088 | 1.56 ± 0.094 | 2.85 ± 0.094 |

| Sequence | protein stability index (doa10∆) | protein stability index (pdr5∆) | protein stability index (san1∆) | protein stability index (ubr1∆) |
| --- | --- | --- | --- | --- |
| NSKPVELKPVSLDNKTL [YJL041W/NSP1] | 2.8 ± 0.055 | 2.75 ± 0.059 | 2.69 ± 0.076 | 2.58 ± 0.064 |
| LPAAVSKSLQESGDTQE [RPC82] | 2.37 ± 0.096 | 2.74 ± 0.11 | 2.97 ± 0.059 | 2.83 ± 0.093 |
| DIIQGNPLMYSGGNNTA [PCI8] | 3.17 ± 0.082 | 3.13 ± 0.08 | 3.32 ± 0.047 | 3.24 ± 0.072 |
| DKTAVKLDTEVKNTNAN [SWP82] | 2.5 ± 0.077 | 2.83 ± 0.076 | 2.88 ± 0.099 | 1.96 ± 0.056 |
| WRAIIKAIFPNTVDGDL [FAS1] | 2.58 ± 0.13 | 2.75 ± 0.15 | 2.6 ± 0.094 |  |
| NPTEFDWPTYVDQNPLT [SRB8] | 2.85 ± 0.068 | 2.44 ± 0.043 | 2.69 ± 0.054 | 2.19 ± 0.046 |
| VHELSKRVHTLLTLIVR [ISW2] | 1.34 ± 0.091 | 1.44 ± 0.064 | 1.96 ± 0.16 | 1.37 ± 0.041 |
| SDSYKVSLQNFSSSVSL [RRP40] | 2.69 ± 0.055 | 1.8 ± 0.044 | 2.02 ± 0.079 | 1.91 ± 0.037 |
| NHITEFPSIPLPINGPI [RPC31] | 2.06 ± 0.05 | 2.24 ± 0.048 | 2.08 ± 0.07 | 1.94 ± 0.051 |
| PWFWLLPLWHLLNRIPR [POP1] | 2.57 ± 0.084 | 1.56 ± 0.054 | 1.33 ± 0.12 | 1.26 ± 0.046 |
| LELQVAKTFIDLESSSP [RPS7B] | 3.17 ± 0.071 | 3.2 ± 0.063 | 2.96 ± 0.11 | 3.11 ± 0.064 |
| IAKLSVIPIRRGYWGTN [RPS2] | 2.02 ± 0.073 | 1.67 ± 0.11 | 1.93 ± 0.19 | 1.76 ± 0.12 |
| KTMKTFVIHIQEKNFQT [RPB5] | 2.05 ± 0.091 | 1.85 ± 0.072 | 1.88 ± 0.14 | 2.56 ± 0.088 |
| EKDLEHWLQLAKGVYRP [POP1] | 2.64 ± 0.072 | 3 ± 0.067 | 3.15 ± 0.041 | 3.1 ± 0.064 |
| PDENKTRVRLPSGAKKV [RPL2A] | 3.12 ± 0.075 | 2.96 ± 0.079 | 3.1 ± 0.037 | 3.08 ± 0.05 |
| TNQDGLKFVKVRVRTTK [RPB2] | 2.42 ± 0.084 | 3.05 ± 0.12 | 3.3 ± 0.1 | 3.2 ± 0.088 |
| RITKSNEKSQAEQEKAK [LRP1] | 1.9 ± 0.075 | 1.33 ± 0.067 | 1.48 ± 0.18 | 1.25 ± 0.14 |
| LISDSNINNSSVAEKEE [SWI3] | 1.6 ± 0.14 | 1.73 ± 0.13 | 1.56 ± 0.12 | 1.55 ± 0.11 |
| TSDLLGSHLSETEFPPF [ECM29] | 2.94 ± 0.049 | 3.17 ± 0.062 | 3.17 ± 0.042 | 2.9 ± 0.058 |
| INTHIETLAYNSLKETL [SNF2] | 2.48 ± 0.054 | 2.76 ± 0.063 | 2.5 ± 0.047 | 2.61 ± 0.042 |
| HFIQKLHTARKILVLTG [SIR2] | 1.74 ± 0.14 | 2.36 ± 0.16 | 1.1 ± 0.15 | 1.66 ± 0.21 |
| NQYKLVFYQVTPEDADE [RPL22B] | 2.21 ± 0.1 | 2.7 ± 0.082 | 2.34 ± 0.059 | 2.14 ± 0.085 |
| VVEGVTFVVEQLIKQSI [SNU114] | 2.52 ± 0.076 | 2.6 ± 0.095 | 3.44 ± 0.098 | 2.85 ± 0.067 |
| VDLIEKFLRYNPLEKRD [RPB10] | 2.91 ± 0.14 | 3.27 ± 0.12 | 3.23 ± 0.071 | 3.11 ± 0.041 |
| NVMTPREQYETQVALNE [UBP6] | 3.17 ± 0.087 | 3.22 ± 0.16 | 2.83 ± 0.13 | 3.05 ± 0.091 |
